Measurements as given in the supplement of paper PMC9170038.

System: MS2 coat protein
Assay: apparent KD of MS2 coat protein; designed switch direction (-1 OFF switch, 1 ON switch): -1; higher = weaker reporter binding
Method in brief: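 RNA switches sharing common flanks were transcribed by stalled E. coli RNA polymerase on Illumina chips. A doubling series of SNAP-549-labelled MS2 coat protein, from 0.7 or 1.5 nM to 3 µM, was applied in Tris-HCl pH 7.5 buffer with KCl, MgCl2, BSA, DTT, tRNA and Tween-20. Each step lasted 0.8–1.5 h at the bottom of the series and 10–20 min at the top. Normalised cluster fluorescence was curve-fitted, giving apparent KD as the per-design median over clusters.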

[1] = Eterna round: R95, input ligand: FMN 200 uM
[2] = Eterna round: R95, input ligand: microRNA oligo, concentration not stated
[3] = Eterna round: R95, input ligand: none
[4] = input ligand: microRNA oligo, concentration not stated

| Sequence | apparent KD of MS2 coat protein [1] [nM] | apparent KD of MS2 coat protein [2] [nM] | apparent KD of MS2 coat protein [3] [nM] | apparent KD of MS2 coat protein [4] [nM] | apparent KD of MS2 coat protein (input ligand: FMN 200 uM) [nM] | apparent KD of MS2 coat protein (input ligand: none) [nM] |
| --- | --- | --- | --- | --- | --- | --- |
| UCAUGUAUGUAGGAUAUCGAUGUCUGCGGACAUCGAGAAGGACGUACAUGAGGAUCACCCAUGUAACUUGCAUG [Exclusion 6 - B - 11:e] (puzzle: Exclusion 6) | 31.9 | 17.8 | 13.1 | – | – | – |
| AUUAUAUAGAAAGGAUAUAGAAUAUUAUUUUAACAUGAGGAUCACCCAUGUAACCUUAUGUGUAGCUAGAAGGUUCAUUUAUUA [Title] (Eterna round: R96, puzzle: Exclusion NG 2) | – | – | – | 52.5 | – | – |
| AGUACUAACACGGAUGUGUUAGUACAAUAAGCUUGUGAAACAUGAGGAUCACCCAUGUCCUCAUAAGCUCGUCUUAU [salish99_TOv2_r3_067] (puzzle: Sensor v3, turn-off variant 2) | 15.5 | 677 | 14.7 | – | – | – |
| GUGUAGGGAGGAUAUACAUGAGGAUCACCCAUGUGAAUAAGAUAGAAUAAGAUAAAGUGUAGAAGGCUUAGUGU [Excluse me!!! 24 - Jieux - Exclusion 3] (puzzle: Exclusion 3) | 49.6 | 53 | 67.9 | – | – | – |
| GGCAUGUAAGGAUAUGCCACGGAGGCCUUUGGCCUCCGAAAGCAGAAGGUACAUGAGGAUCACCCAUGUGAUAA [jl-ex4-4.59 ViennaUCT mod] (Eterna round: R97, puzzle: Exclusion 4) | – | – | – | – | 467 | 390 |
| UGUUGUCGCGCAGGAUAUGAGGAUCACCCAUAUAGAGGAUAUGAAAAGAAGGCUCUGAGGAUCACCCAGAAGGGCGGGACAACU [pwkr exNG2 2xF5 2xFMN.23] (Eterna round: R96, puzzle: Exclusion NG 2) | – | – | – | 141 | 1390 | 222 |
| GGUGAGCUAGGAUAUGCUUUGGGCUCGCUUUCCUUCGAUAAACUUGAGGAUCACCCAAGUAGAAGGAGCUUGCC [salish99_ex2_r4_033] (Eterna round: R97, puzzle: Exclusion 2) | – | – | – | – | 14.8 | 12 |
| UAAUAUCUGAUUCUUGAGAUACAUGAGGAUCACCCAUGUUCACAGGAUAUUGAUUUUAAGAAAAGCAAGAAGGGUGAAUCAUUU [JR_ExcNG3_Sub041] (Eterna round: R96, puzzle: Exclusion NG 3) | – | – | – | 16.5 | 26.9 | 22.9 |
| GCUUGGCGAGGAUAUACAUGAGGAUCACCCAUGUGAGAGAAUAAAGUGAGGAAGAAAAGUAGAAGGCGCUGAGG [Mat - Exclusion 3 - Mod of Salish D58] (puzzle: Exclusion 3) | 199 | 40.4 | 40.4 | – | – | – |
| UAGUUAUUCACAGGAUAUCGCCUCUUAUUACAUGAGGAUCACCCAUGUUUAUUUUGUUACAUGUUCGAGAAGGGUGUAGCCGUU [JR_ExcNG2_Sub045] (Eterna round: R96, puzzle: Exclusion NG 2) | – | – | – | 258 | – | – |
| UUAGGCGUCUUUGCUCGUCUUAUUUGGAGAUGACUGUUAACAUGAGGAUCACCCAUGUGUGUGGGAGCUUUGCAGUU [JR_SV3TOV2_Sub022] (puzzle: Sensor v3, turn-off variant 2) | 215 | 377 | 271 | – | – | – |
| AAGACGCGUGUAAGGAUAUCGAAAGCCCGAGGCGACGAGAAGGUACAUGAGGAUCACCCAUGUGCAGAUCACAA [BmEX4 B.3] (Eterna round: R97, puzzle: Brourd's mod of Exclusion 4) | – | – | – | – | 18.9 | 17.3 |
| UUUUGGCAAGCGAGAUCCUACAUGAGGAUCACCCAUGUUGACCAUGGUUUCCAUGGUCUUUUUGCUCGUCUUGUGUG [jl TITIN mod 3] (Eterna round: R97, puzzle: Sensor, turn-off variant 1) | – | – | – | – | 21.1 | 23.1 |
| CAGGAGUCAGGAUAUCGUUACCACGGAGUUGCUGUGCAUAACGAGAAGGGACAUGAGGAUCACCCAUGUGCCUC [Eternabot (L1) Solution 98] (Eterna round: R97, puzzle: Exclusion 4) | – | – | – | – | 57.6 | 22.3 |
| GGAUAUAACGUAGGAUAUCAGAGAAACAGACGAUGAGAAGGACGACAUGAGGAUCACCCAUGUGAUCUAUCAAUAUUAUACAUG [Prohibition 98 - Jieux - Exclusion NG 1] (Eterna round: R96, puzzle: Exclusion NG 1) | – | – | – | 434 | 874 | 712 |
| GUUAAACAUGAGGAUCACCCAUGUAAGGAUAUGCUGCGGUCGAGAUGAAGUGAAUGCAGCAGAAGGUACAAUUG [Mat - Mod of JL D53] (puzzle: Exclusion 1) | – | 148 | – | – | – | – |
| GCACCACGAGGAUAUACAUGAGGAUCACCCAUGUGAUCAGCAGUCCUCGGACUGCAAUGUAGAAGGCGUGGUGC [E3/1-A1] (Eterna round: R97, puzzle: Exclusion 3) | – | – | – | – | 24.3 | 776 |

| Sequence | apparent KD of MS2 coat protein [1] [nM] | apparent KD of MS2 coat protein [2] [nM] | apparent KD of MS2 coat protein [3] [nM] | apparent KD of MS2 coat protein [4] [nM] | apparent KD of MS2 coat protein (input ligand: FMN 200 uM) [nM] | apparent KD of MS2 coat protein (input ligand: none) [nM] |
| --- | --- | --- | --- | --- | --- | --- |
| UCUCGACAUGAGGAUCACCCAUGUCAGGAUAUUGUAUUAGAGGUUUUUUACCUUAUAACAAGAAGGGAUGUGUG [LRO-Excl1-23] (puzzle: Exclusion 1) | – | 23.6 | – | – | – | – |
| GUCAGCUCGUGAGGAUAUACAUGAGGAUCACCCAUGUGGUCAUUAGCAGCUUCGGCUGCAUUAAUGUAGAAGGCACGAGCUGAC [ENG2/8-A1] (Eterna round: R96, puzzle: Exclusion NG 2) | – | – | – | 690 | 635 | 1140 |
| GCUGGUCAAGGAUAUGCAAUCGUGCUUCGGCACGUAAGGUCACAUGAGGAUCACCCAUGUAGAAGGUGACCAGC [E2/4-C1] (Eterna round: R97, puzzle: Exclusion 2) | – | – | – | – | 27.8 | 18.4 |
| CCCUAGUAUGUAGGAUAUCGGUCAGUUUCUGAUCGAGAAGGACAUGAGGAUCACCCAUGUAAAACGUCCGGUUUCUGGAUAGGG [JL ENG1 3.56] (Eterna round: R96, puzzle: Exclusion NG 1) | – | – | – | 17 | 73.2 | 24.6 |
| CCUCUACAUGAGGAUCACCCAUGUGAGGAUAUCCUGCGAGGAUCAAAAGAUCCUCGUGGGAGAAGGCAUAUGUA [Omei Ex1 A2] (Eterna round: R97, puzzle: Exclusion 1) | – | – | – | – | 30.6 | 24.8 |
| CCGGUUGGCGCAGGAUAUACAUGAGGAUCACCCAUGUUCAUGAGGAUCACCUAUGAGUUUUUGUUGUAGAAGGGUGGCCCGGCC (Eterna round: R96, puzzle: Exclusion NG 2) | – | – | – | 39.1 | 53.1 | 52.9 |
| CCCAGUUAUUCAGGAUAUUGUACAUGAGGAUCACCCAUGUAAUAAAUGAGGAUUUCGGGUGUCUACAAGAAGGGAAGGAUAGGC [Ostracism 19 - Jieux - Exclusion NG 2] (Eterna round: R96, puzzle: Exclusion NG 2) | – | – | – | 23.8 | 26.5 | 29.3 |
| UGGUAACAUGAGGAUCACCCAUGUCAGGAUAUCAGGAAGAAGAGAGGAGAGUAGAAGAUGAGAAGGGACUAUAU [Excluse me! 10 - Jieux - Exclusion 1] (puzzle: Exclusion 1) | 20.2 | 24.5 | 27.5 | – | – | – |
| GCAACGCUGAAAGGAUAUGUUGACCGAGAGACAACAGAAGGUUCCGCACAUGAGGAUCACCCAUGUGAUCGUAAAAGAGCAAGC [Eternabot solution 18] (Eterna round: R96, puzzle: Exclusion NG 1) | – | – | – | 35.9 | 99.5 | 48.1 |
| AAUUAGUGAGGAUAUUCGAGCAGUGGCAGUAGCCAGUGCAUGAAGAAGGCACAUGAGGAUCACCCAUGUUAUAA [EX4 #60] (Eterna round: R97, puzzle: Exclusion 4) | – | – | – | – | 53.4 | 28.4 |
| GAAGAACAUGAGGAUCACCCAUGUGAGGAUAUGAAAAAGAAAAGAAAAGAAAGAAGAAUCAGAAGGCACAAAGG [Mat - Mod of Hog D2] (puzzle: Exclusion 1) | 50.8 | 23.1 | 38.3 | – | – | – |
| GGAUCGUAUGUCAGGAUAUACCACUGGAUACAGUGGUAGAAGGGACAUGAGGAUCACCCAUGUUCUAUCGAUCC [Fiskers BMX 4 - 53] (puzzle: Brourd's mod of Exclusion 4) | – | 12.5 | – | – | – | – |
| AAGUUACAUGAGGAUCACCCAUGUGAGGAUAUGAGUCAGUCACGGUGACGUGGCUGACUCAGAAGGCACAAUGG [JL-ex1-4.41 salish99 mod] (Eterna round: R97, puzzle: Exclusion 1) | – | – | – | – | 43 | 290 |
| GAGGAGCAAGGAUAUACGAGGAGAGGGAAGAGAGGAGAGAGACAUGAGGAUCACCCAUGUAGAAGGUGCAAGGG [JR_Exclu2_Sub093] (puzzle: Exclusion 2) | 116 | 131 | 180 | – | – | – |
| ACUUAUAGAGGAUAUACAGUUUAUUACAUGAGGAUCACCCAUGUUCUUCAAUGUCCUAAAGUAGAAGGCUAAGGAA [Mat - Exclusion 5 - Eli Mod - D12] (Eterna round: R97, puzzle: Exclusion 5) | – | – | – | – | 18.8 | 16.2 |
| UCCGUGUGAGGAUAUGCGAAUGACGAGUUACCUUGUCGCAAGCAGAAGGUACAUGAGGAUCACCCAUGUCCUAU [Eternabot (L1) Solution 61] (Eterna round: R97, puzzle: Exclusion 4) | – | – | – | – | 27.8 | 20.4 |
